Test results: patent US20260209365A1, “ANTI-COMMON GAMMA CHAIN PROTEINS AND COMPOSITIONS OF MATTER” (SINOMAB BIOSCIENCE LIMITED, priority 2023, published 2026)
Substitutions are numbered along the chain they refer to.

T1: human γc on cells (KHYG-1, Ramos, HPB-ALL, Jurkat, PBMC) (human) (UniProt P31785)
T1 sequence (looked up): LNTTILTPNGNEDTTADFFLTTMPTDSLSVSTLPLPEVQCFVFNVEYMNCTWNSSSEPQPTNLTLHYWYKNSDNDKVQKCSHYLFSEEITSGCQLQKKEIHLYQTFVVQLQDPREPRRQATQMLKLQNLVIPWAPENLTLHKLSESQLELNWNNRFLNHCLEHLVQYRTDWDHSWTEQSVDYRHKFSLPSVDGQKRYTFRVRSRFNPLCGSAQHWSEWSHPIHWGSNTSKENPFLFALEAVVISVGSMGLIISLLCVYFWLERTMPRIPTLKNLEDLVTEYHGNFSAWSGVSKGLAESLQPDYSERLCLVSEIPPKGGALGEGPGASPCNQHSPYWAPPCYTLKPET

B1: SM-05K: anti-γc antibody; CDR SEQ ID NO: 164, 166, 168, 172, 174, 176 (antibody, V domains shown)
VH: EVQLLESGPELVKPGASVKISCKTSGYSFTDYFMNWVKQSHGESLEWIGGIDPNTGGVTYNQKFKGKATLTVDKSASTAYMELRSLTSEDSAVYYCARRRRYYGYAMDYWGQGTSVTVSS
VL: DVLMTQTPLSLPVSLGDQASISCRSSQSIVHSNGNTYLEWYLQKPGQSPKLLIYKVSNRFSGVPDRFSGSGSGTDFTLKISRVEAEDLGVYFCSQSTHVPWTFGGGTKLEIK
modifications: left off: another chain or arm of the molecule; small tags and cut ends
B2: SM-05A anti-γc ScFv (scFv, part only; not given: linker and E-tag, not shown: small tags and cut ends)
scFv (part 1 of 2), part: EVQLQQSGPELVKPGASVKISCKTSGYTFTEYTMHWVKQSHGKSLEWIGGIDPYNGGATYNQRFKGKATLTVDKSSSTAYMEFRSLTSEDSAVYYCARRRLYYGNALDYWGQGTSVTVSS
scFv (part 2 of 2), part: DVLMTQTPLSLPVSLGDQASISCRSSQSLVHSNGNTYLHWYLQRPGQSPKLLIYKVSSRFSGVPDRFSGSGSGTDFTLKISRVEAEDLGVYFCSQTTHVPFTFGSGTKLEIKR
B3: SM-05E anti-γc ScFv (scFv, part only; not given: linker and E-tag, not shown: small tags and cut ends)
scFv (part 1 of 2), part: EVHLQQSGPELVKPGASVKIFCKTSGYTFTEYTMHWVKQSHGESLEWIGGIDPNTGGVTYNQKFKGKATLTADKSSSTAYMELRSLTSEDSAVYYCARRRRYYGYALDYWGQGTSVTVSS
scFv (part 2 of 2), part: B2 scFv (part 2 of 2), part with L29I, H39E, R44K, S58N, R82S, T96S, T102M
B4: SM-05C anti-γc ScFv (scFv, part only; not given: linker and E-tag, not shown: small tags and cut ends)
scFv (part 1 of 2), part: B3 scFv (part 1 of 2), part with E1Q, H3Q, V58A, L107M
scFv (part 2 of 2), part: B2 scFv (part 2 of 2), part with L3V, R44K, S58N, V90I, F92Y, S94F, T96D, T97S
B5: SM-05K anti-γc ScFv (scFv, part only; not given: linker and E-tag, not shown: small tags and cut ends)
scFv (part 1 of 2), part: B1 VH
scFv (part 2 of 2), part: B2 scFv (part 2 of 2), part with L29I, H39E, R44K, S58N, T96S, F101W, S105G
B6: SM-05H anti-γc ScFv (scFv, part only; not given: linker and E-tag, not shown: small tags and cut ends)
scFv (part 1 of 2), part: B3 scFv (part 1 of 2), part with E1Q, H3Q, V18M, K19N, V58A, K67Q
scFv (part 2 of 2), part: B2 scFv (part 2 of 2), part with S28N, L29I, V30I, H39E, R44K, S58N, S68T, T96S, S105G
B7: SM-05I anti-γc ScFv (scFv, part only; not given: linker and E-tag, not shown: small tags and cut ends)
scFv (part 1 of 2), part: QVQLQQSGAELAKPGASVKLSCKASGYTFTEYTMHWVKQSHGESLDWIGGIDPNTGGATYNQRFKGKATMTVDKSSSTAYMEFRSLTSEDSAVYYCARRRRYYGYALDNWGQGTSVTVSS
scFv (part 2 of 2), part: B2 scFv (part 2 of 2), part with L29I, H39E, R44K, S58N, F92Y, S94F, T96D, T97S
B8: SM-05J anti-γc ScFv (scFv, part only; not given: linker and E-tag, not shown: small tags and cut ends)
scFv (part 1 of 2), part: B2 scFv (part 1 of 2), part with A58I, F83L, N105Y
scFv (part 2 of 2), part: B2 scFv (part 2 of 2), part with L3V, L29I, H39E, R44K, S58N, F92Y, S94F, T96G, T97S
B9: SM-05F anti-γc ScFv (scFv, part only; not given: linker and E-tag, not shown: small tags and cut ends)
scFv (part 1 of 2), part: B3 scFv (part 1 of 2), part with H3Q
scFv (part 2 of 2), part: DVLMTQTPLSLPVSLGDQASISCRSSQSIVHNNGNTYLEWYLQKPGQSPKLLIYKVSNRFFGVPDRFSGSGSGTYFTLKISRVEAEDLGVYYCFQGSHVPWTFGGGTKLEIKR
B10: SM-05B anti-γc ScFv (scFv, part only; not given: linker and E-tag, not shown: small tags and cut ends)
scFv (part 1 of 2), part: B3 scFv (part 1 of 2), part with E1Q, H3Q, V58A
scFv (part 2 of 2), part: B9 scFv (part 2 of 2), part with N32S, F61S, Y75D, Y92F, F94S, G96S, S97T
B11: SM-05G anti-γc ScFv (scFv, part only; not given: linker and E-tag, not shown: small tags and cut ends)
scFv (part 1 of 2), part: B3 scFv (part 1 of 2), part with H3Q, K74S, S85N
scFv (part 2 of 2), part: B9 scFv (part 2 of 2), part with L3V, S14N, I29L, N32S, E39D, F61S, K79N, I80F, W101F, G105S

Key:
[1] = tested on: IL-15 induced STAT5 phosphorylation; experiment: Inhibition of IL-15 induced STAT phosphorylation in KHYG-1 NK cell line, flow cytometry; format: cell-based, human; conditions: ScFv 10 μg/ml
From the text: (§1) Cells were harvested and stained with FITC conjugated anti-pSTAT6, PE conjugated anti-pSTAT3 or APC con jugated anti-pSTAT5 antibodies for flow cytometry analyses. In some embodiments, the purified ScFv could block the IL-4 induced STAT6 phosphorylation in cell culture (e.g., Ramos). In some embodiments, the purified ScFv could block the IL-7 induced STAT5 phosphorylation in cell culture (e.g., HPB-ALL). In some embodiments, the purified ScFv could block the IL-9 induced STAT3 phosphorylation in cell culture (e.g., Jurkat). In some embodiments, the purified ScFv could block the IL-15 induced STAT5 phosphorylation in cell culture (e.g., KHYG-1). In some embodiments, the purified ScFv could block the IL-21 induced STAT3 phosphorylation in cell culture (e.g., Ramos).
(§2) Flow cytometry was employed to measure the percentage of p-STAT expressing cells after cytokine induction and anti-γc ScFv treatment. KHYG-1 (Creative Bioarray, Shirley, NY 11967, USA) was starved in IL-2 free RPMI1640 (ATCC modification, ThermoFisher Scientific, Waltham, MA, USA) with 10% FBS (ThermoFisher Scientific) for 2 days. Ramos, HPB-ALL and Jurkat cell lines were used directly without starvation. Cells were replenished with fresh RPMI1640 medium and pretreated with anti-γc ScFv (10 μg/mL) for an hour. After treatment with TL-4 (10 ng/ml, Sino Biological), IL-7 (50 ng/ml, Sino Biological), IL-9 (50 ng/ml, Sino Biological), IL-15 (10 ng/ml, Sino Biological) or IL-21 (10 ng/ml, Sino Biological) for 15 min, cells were fixed in 4% paraformaldehyde (PFA, Sigma, St. Louis, Missouri, USA) for 10 min, permeabilized in 0.1% Triton X-100 (Sigma) for 10 min and then stained with FITC conjugated anti-pSTAT6, PE conjugated anti-pSTAT3 or APC con jugated anti-pSTAT5 (all diluted in 1:100, Biolegend, San Diego, California, USA) for 30 min at 37° C. Percentage of p-STAT expressing cells was measured by BD FACSLyric™ Clinical Flow Cytometry System (BD Biosciences, New Jersey, USA). Data were analyzed by Flowjo (version 10, BD).
(§3) Different cell lines were used for testing. KHYG-1 refers to the NK cell line harvested from the peripheral blood of a person with aggressive NK cell leukemia. This cell line could respond to IL-2 and IL-15 stimulation in-vitro [Yamasaki et al., Leuk Res., […]; 28 (10): 1023-31]. Ramos is a human Burkitts Lymphoma cell line (CRL-1596™) and could be used as a model for IL-4 and IL-21 studies [Hui et al., Front Immunol., 2022; 13: 919854]. Jurkat is a human T lymphoblast cell line (Clone E6-1, TIB-152™) and is widely used in the T cell studies of IL-9 function. HPB-ALL is a T cell leukemia model established from the peripheral blood of a child with ALL and thymoma at diagnosis in 1973 and could be used for IL-7 functional studies.

[2] = tested on: IL-21 induced STAT3 phosphorylation; experiment: Inhibition of IL-21 induced STAT phosphorylation in Ramos B cell line, flow cytometry; format: cell-based, human; conditions: ScFv 10 μg/ml
From the text: as §1, §2, §3

[3] = tested on: IL-7 induced STAT5 phosphorylation; experiment: Inhibition of IL-7 induced STAT5 phosphorylation in HPB-ALL T cell line, flow cytometry; format: cell-based, human; conditions: ScFv 10 μg/ml
From the text: as §1, §2, §3

[4] = target: T1, human γc on cells (KHYG-1, Ramos, HPB-ALL, Jurkat, PBMC) (human); experiment: cell-based or functional assay

Row | Molecule | p-STAT5 inhibition (%) [1] [%] | p-STAT3 inhibition (%) [2] [%] | p-STAT5 inhibition (%) [3] [%] | p-STAT3 inhibition (%), IL-9 induced, Jurkat T cells, flow cytometry [4] [%] | p-STAT3 inhibition (%), IL-21 induced, Ramos B cells, flow cytometry [4] [%] | p-STAT5 inhibition (%), IL-7 induced, HPB-ALL T cells, flow cytometry [4] [%] | p-STAT5 inhibition (%), IL-15 induced, KHYG-1 NK cells, flow cytometry [4] [%] | p-STAT6 inhibition (%), IL-4 induced, Ramos B cells, flow cytometry [4] [%]
1 | B1 | 42.97 | 90.77 | 86.02 | – | – | – | – | –
2 | B2 | – | – | – | 80.6 | 47.3 | 100 | 48.6 | 86.1
3 | B3 | – | – | – | 74.3 | 60.6 | 98.3 | 47.8 | 85.6
4 | B4 | – | – | – | 97.9 | 29.1 | 100 | 46 | 46
5 | B5 | – | – | – | – | 90.8 | 86 | 43 | –
6 | B6 | – | – | – | 93.1 | 70.6 | 100 | 51.7 | 63.4
7 | B7 | – | – | – | 100 | 91 | – | 38.9 | 74.1
8 | B8 | – | – | – | 100 | 75.8 | 98.1 | 42.7 | 82.2
9 | B9 | – | – | – | 92.4 | 79 | 99.4 | 43.7 | 46
10 | B10 | – | – | – | 82.6 | 13.8 | 94.5 | 47.1 | 77
11 | B11 | – | – | – | – | – | 0 | – | –
